Measurements as given in patent publication US20260167699A1 (Chugai, published 2026).

Target: T1, FcγRIIIa (human, UniProt P08637 17-208)
T1 construct: extracellular domain; also called 3a; FcγRIIIa extracellular domain
Experiment: SPR (Biacore);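 note: antibody variants captured on an SPR sensor chip, with FcγRIIIa passed over as analyte in HBS-EP+ buffer at 25 °C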

T1 sequence (P08637 other isoform, or with tags, fused parts or gaps): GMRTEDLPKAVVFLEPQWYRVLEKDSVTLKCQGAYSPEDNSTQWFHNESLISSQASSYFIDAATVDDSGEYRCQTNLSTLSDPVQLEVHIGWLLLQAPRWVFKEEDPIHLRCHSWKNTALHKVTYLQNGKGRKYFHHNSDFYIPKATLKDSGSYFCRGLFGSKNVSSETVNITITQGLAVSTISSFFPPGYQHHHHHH

| Binder | He/Con 3a |
| --- | --- |
| GpH7-A5/GpH7-B3 variant S337_19Q/GpL16-k0 (antibody, human IgG1, kappa, copies: 1 + 1 + 2) heavy 1: not shown heavy 2: not shown light: DIVMTQSPLSLPVTPGEPASISCQASESLVHSNRNTYLHWYLQKPGQSPQLLIYKVSNRFSGVPDRFSGSGSGTDFTLKISRVEAEDVGVYYCSQNTHVPPTFGQGTKVEIERTVAAPSVFIFPPSDEQLKSGTASVVCLLNNFYPREAKVQWKVDNALQSGNSQESVTEQDSKDSTYSLSSTLTLSKADYEKHKVYACEVTHQGLSSPVTKSFNRGEC | 91.2 % of GpH7-A5/GpH7-B3/GpL16-k0 |
| GpH7-A5/GpH7-B3 variant T335_02A/GpL16-k0 (antibody, human IgG1, kappa, copies: 1 + 1 + 2) heavy 1: not shown heavy 2: not shown light: DIVMTQSPLSLPVTPGEPASISCQASESLVHSNRNTYLHWYLQKPGQSPQLLIYKVSNRFSGVPDRFSGSGSGTDFTLKISRVEAEDVGVYYCSQNTHVPPTFGQGTKVEIERTVAAPSVFIFPPSDEQLKSGTASVVCLLNNFYPREAKVQWKVDNALQSGNSQESVTEQDSKDSTYSLSSTLTLSKADYEKHKVYACEVTHQGLSSPVTKSFNRGEC | 90.9 % of GpH7-A5/GpH7-B3/GpL16-k0 |
| GpH7-A5/GpH7-B3 variant S337_09D/GpL16-k0 (antibody, human IgG1, kappa, copies: 1 + 1 + 2) heavy 1: not shown heavy 2: not shown light: DIVMTQSPLSLPVTPGEPASISCQASESLVHSNRNTYLHWYLQKPGQSPQLLIYKVSNRFSGVPDRFSGSGSGTDFTLKISRVEAEDVGVYYCSQNTHVPPTFGQGTKVEIERTVAAPSVFIFPPSDEQLKSGTASVVCLLNNFYPREAKVQWKVDNALQSGNSQESVTEQDSKDSTYSLSSTLTLSKADYEKHKVYACEVTHQGLSSPVTKSFNRGEC | 102 % of GpH7-A5/GpH7-B3/GpL16-k0 |
| GpH7-A5/GpH7-B3 variant T335_01G/GpL16-k0 (antibody, human IgG1, kappa, copies: 1 + 1 + 2) heavy 1: not shown heavy 2: not shown light: DIVMTQSPLSLPVTPGEPASISCQASESLVHSNRNTYLHWYLQKPGQSPQLLIYKVSNRFSGVPDRFSGSGSGTDFTLKISRVEAEDVGVYYCSQNTHVPPTFGQGTKVEIERTVAAPSVFIFPPSDEQLKSGTASVVCLLNNFYPREAKVQWKVDNALQSGNSQESVTEQDSKDSTYSLSSTLTLSKADYEKHKVYACEVTHQGLSSPVTKSFNRGEC | 95.1 % of GpH7-A5/GpH7-B3/GpL16-k0 |
| GpH7-A5/GpH7-B3 variant S337_12R/GpL16-k0 (antibody, human IgG1, kappa, copies: 1 + 1 + 2) heavy 1: not shown heavy 2: not shown light: DIVMTQSPLSLPVTPGEPASISCQASESLVHSNRNTYLHWYLQKPGQSPQLLIYKVSNRFSGVPDRFSGSGSGTDFTLKISRVEAEDVGVYYCSQNTHVPPTFGQGTKVEIERTVAAPSVFIFPPSDEQLKSGTASVVCLLNNFYPREAKVQWKVDNALQSGNSQESVTEQDSKDSTYSLSSTLTLSKADYEKHKVYACEVTHQGLSSPVTKSFNRGEC | 92.7 % of GpH7-A5/GpH7-B3/GpL16-k0 |

Other lines, results leading:

| He/Con 3a | Binder |
| --- | --- |
| 94.9 % of GpH7-A5/GpH7-B3/GpL16-k0 | GpH7-A5/GpH7-B3 variant S337_15Y/GpL16-k0 (antibody, human IgG1, kappa, copies: 1 + 1 + 2) heavy 1: not shown heavy 2: not shown light: DIVMTQSPLSLPVTPGEPASISCQASESLVHSNRNTYLHWYLQKPGQSPQLLIYKVSNRFSGVPDRFSGSGSGTDFTLKISRVEAEDVGVYYCSQNTHVPPTFGQGTKVEIERTVAAPSVFIFPPSDEQLKSGTASVVCLLNNFYPREAKVQWKVDNALQSGNSQESVTEQDSKDSTYSLSSTLTLSKADYEKHKVYACEVTHQGLSSPVTKSFNRGEC |
| 100 % of GpH7-A5/GpH7-B3/GpL16-k0 | GpH7-A5/GpH7-B3 variant S337_16H/GpL16-k0 (antibody, human IgG1, kappa, copies: 1 + 1 + 2) heavy 1: not shown heavy 2: not shown light: DIVMTQSPLSLPVTPGEPASISCQASESLVHSNRNTYLHWYLQKPGQSPQLLIYKVSNRFSGVPDRFSGSGSGTDFTLKISRVEAEDVGVYYCSQNTHVPPTFGQGTKVEIERTVAAPSVFIFPPSDEQLKSGTASVVCLLNNFYPREAKVQWKVDNALQSGNSQESVTEQDSKDSTYSLSSTLTLSKADYEKHKVYACEVTHQGLSSPVTKSFNRGEC |
| 97.8 % of GpH7-A5/GpH7-B3/GpL16-k0 | GpH7-A5/GpH7-B3 variant S337_10E/GpL16-k0 (antibody, human IgG1, kappa, copies: 1 + 1 + 2) heavy 1: not shown heavy 2: not shown light: DIVMTQSPLSLPVTPGEPASISCQASESLVHSNRNTYLHWYLQKPGQSPQLLIYKVSNRFSGVPDRFSGSGSGTDFTLKISRVEAEDVGVYYCSQNTHVPPTFGQGTKVEIERTVAAPSVFIFPPSDEQLKSGTASVVCLLNNFYPREAKVQWKVDNALQSGNSQESVTEQDSKDSTYSLSSTLTLSKADYEKHKVYACEVTHQGLSSPVTKSFNRGEC |
| 94 % of GpH7-A5/GpH7-B3/GpL16-k0 | GpH7-A5/GpH7-B3 variant S337_14T/GpL16-k0 (antibody, human IgG1, kappa, copies: 1 + 1 + 2) heavy 1: not shown heavy 2: not shown light: DIVMTQSPLSLPVTPGEPASISCQASESLVHSNRNTYLHWYLQKPGQSPQLLIYKVSNRFSGVPDRFSGSGSGTDFTLKISRVEAEDVGVYYCSQNTHVPPTFGQGTKVEIERTVAAPSVFIFPPSDEQLKSGTASVVCLLNNFYPREAKVQWKVDNALQSGNSQESVTEQDSKDSTYSLSSTLTLSKADYEKHKVYACEVTHQGLSSPVTKSFNRGEC |
| 93.8 % of GpH7-A5/GpH7-B3/GpL16-k0 | GpH7-A5/GpH7-B3 variant S337_20W/GpL16-k0 (antibody, human IgG1, kappa, copies: 1 + 1 + 2) heavy 1: not shown heavy 2: not shown light: DIVMTQSPLSLPVTPGEPASISCQASESLVHSNRNTYLHWYLQKPGQSPQLLIYKVSNRFSGVPDRFSGSGSGTDFTLKISRVEAEDVGVYYCSQNTHVPPTFGQGTKVEIERTVAAPSVFIFPPSDEQLKSGTASVVCLLNNFYPREAKVQWKVDNALQSGNSQESVTEQDSKDSTYSLSSTLTLSKADYEKHKVYACEVTHQGLSSPVTKSFNRGEC |
| 100 % of GpH7-A5/GpH7-B3/GpL16-k0 | GpH7-A5/GpH7-B3 variant T335_05P/GpL16-k0 (antibody, human IgG1, kappa, copies: 1 + 1 + 2) heavy 1: not shown heavy 2: not shown light: DIVMTQSPLSLPVTPGEPASISCQASESLVHSNRNTYLHWYLQKPGQSPQLLIYKVSNRFSGVPDRFSGSGSGTDFTLKISRVEAEDVGVYYCSQNTHVPPTFGQGTKVEIERTVAAPSVFIFPPSDEQLKSGTASVVCLLNNFYPREAKVQWKVDNALQSGNSQESVTEQDSKDSTYSLSSTLTLSKADYEKHKVYACEVTHQGLSSPVTKSFNRGEC |
| 90.2 % of GpH7-A5/GpH7-B3/GpL16-k0 | GpH7-A5/GpH7-B3 variant S337_08L/GpL16-k0 (antibody, human IgG1, kappa, copies: 1 + 1 + 2) heavy 1: not shown heavy 2: not shown light: DIVMTQSPLSLPVTPGEPASISCQASESLVHSNRNTYLHWYLQKPGQSPQLLIYKVSNRFSGVPDRFSGSGSGTDFTLKISRVEAEDVGVYYCSQNTHVPPTFGQGTKVEIERTVAAPSVFIFPPSDEQLKSGTASVVCLLNNFYPREAKVQWKVDNALQSGNSQESVTEQDSKDSTYSLSSTLTLSKADYEKHKVYACEVTHQGLSSPVTKSFNRGEC |
